Reference: publication PMC10810270, “Molecular mechanism of specific DNA sequence recognition by NRF1” (Nucleic Acids Research, 2023)

Columns and labels:
[1] = molecular target: the molecule itself; assay: SEC-MALS; HPLC-MALS, WTC-015S5 column, 50 mM PBS and 150 mM NaCl, 0.5 mL/min; oligomeric state of NRF1 fragments without DNA
NRF1 DD = molecular target: T1, NRF1 DD (human, UniProt Q16656 54-177); assay: ITC; repeats 1.86, 1.78, 1.96; ITC: 20 mM Hepes pH 7.0, 150 mM NaCl, 25 C; protein 20-30 uM, dsDNA 500-600 uM; conditions: protein: recombinant; tags: N-terminal His6 removed by TEV (pET28-MHL); chain copies: 2; blunt; self-complementary
T1 sequence: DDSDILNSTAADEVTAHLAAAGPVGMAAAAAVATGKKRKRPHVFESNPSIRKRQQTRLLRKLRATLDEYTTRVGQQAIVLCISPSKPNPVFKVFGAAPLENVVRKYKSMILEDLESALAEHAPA

NRF1 R206A = molecular target: T2, NRF1 R206A (human, UniProt Q16656 54-284, R206A); assay: ITC; mean of repeats 5.60, 5.60, 4.40; ITC: 20 mM Hepes pH 7.0, 150 mM NaCl, 25 C; protein 20-30 uM, dsDNA 500-600 uM; conditions: protein: recombinant; tags: N-terminal His6 removed by TEV; chain copies: 2; blunt; self-complementary
T2 sequence: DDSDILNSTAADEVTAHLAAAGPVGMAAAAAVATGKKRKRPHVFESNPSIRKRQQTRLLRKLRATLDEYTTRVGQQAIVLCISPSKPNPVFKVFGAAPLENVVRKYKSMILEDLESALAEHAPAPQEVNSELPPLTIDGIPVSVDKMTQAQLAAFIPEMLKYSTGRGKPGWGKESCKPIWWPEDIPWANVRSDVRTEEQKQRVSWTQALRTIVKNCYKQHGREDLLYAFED

NRF1 R244A = molecular target: T3, NRF1 R244A (human, UniProt Q16656 54-284, R244A); assay: ITC; mean of repeats 6.45, 8.62, 4.92; ITC: 20 mM Hepes pH 7.0, 150 mM NaCl, 25 C; protein 20-30 uM, dsDNA 500-600 uM; conditions: protein: recombinant; tags: N-terminal His6 removed by TEV; chain copies: 2; blunt; self-complementary
T3 sequence: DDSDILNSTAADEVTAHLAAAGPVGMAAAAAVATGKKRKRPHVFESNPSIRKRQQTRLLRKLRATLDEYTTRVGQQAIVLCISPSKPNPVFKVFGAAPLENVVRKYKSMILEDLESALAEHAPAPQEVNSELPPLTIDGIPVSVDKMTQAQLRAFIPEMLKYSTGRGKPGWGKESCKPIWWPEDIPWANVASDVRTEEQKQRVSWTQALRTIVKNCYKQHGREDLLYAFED

NRF1 T109D = molecular target: T4, NRF1 T109D (human, UniProt Q16656 54-284, T109D); assay: ITC; mean of repeats 1.62, 1.87, 1.30; ITC: 20 mM Hepes pH 7.0, 150 mM NaCl, 25 C; protein 20-30 uM, dsDNA 500-600 uM; conditions: protein: recombinant; tags: N-terminal His6 removed by TEV; chain copies: 2; blunt; self-complementary
T4 sequence: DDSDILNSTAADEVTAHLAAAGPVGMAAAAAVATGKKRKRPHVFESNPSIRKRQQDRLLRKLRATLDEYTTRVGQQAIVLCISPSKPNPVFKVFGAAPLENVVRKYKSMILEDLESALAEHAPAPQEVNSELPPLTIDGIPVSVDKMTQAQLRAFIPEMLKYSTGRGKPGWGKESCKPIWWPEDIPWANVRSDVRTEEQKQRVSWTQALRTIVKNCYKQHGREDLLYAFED

NRF1 T109A = molecular target: T5, NRF1 T109A (human, UniProt Q16656 54-284, T109A); assay: ITC; mean of repeats 2.80, 2.36, 1.72; ITC: 20 mM Hepes pH 7.0, 150 mM NaCl, 25 C; protein 20-30 uM, dsDNA 500-600 uM; conditions: protein: recombinant; tags: N-terminal His6 removed by TEV; chain copies: 2; blunt; self-complementary
T5 sequence: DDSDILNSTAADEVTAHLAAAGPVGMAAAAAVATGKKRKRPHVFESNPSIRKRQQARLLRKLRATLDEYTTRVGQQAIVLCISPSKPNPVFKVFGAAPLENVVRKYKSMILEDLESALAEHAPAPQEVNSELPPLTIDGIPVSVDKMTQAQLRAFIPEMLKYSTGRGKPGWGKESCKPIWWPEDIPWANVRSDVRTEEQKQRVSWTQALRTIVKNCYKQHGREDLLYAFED

NRF1 DD-DBD [2] = molecular target: T6, NRF1 DD-DBD (human, UniProt Q16656 54-284); assay: ITC; ITC: 20 mM Hepes pH 7.0, 150 mM NaCl, 25 C; protein 20-30 uM, dsDNA 500-600 uM; conditions: protein: recombinant, tags: N-terminal His6 removed by TEV (pET28-MHL), chain copies: 2, blunt
T6 sequence: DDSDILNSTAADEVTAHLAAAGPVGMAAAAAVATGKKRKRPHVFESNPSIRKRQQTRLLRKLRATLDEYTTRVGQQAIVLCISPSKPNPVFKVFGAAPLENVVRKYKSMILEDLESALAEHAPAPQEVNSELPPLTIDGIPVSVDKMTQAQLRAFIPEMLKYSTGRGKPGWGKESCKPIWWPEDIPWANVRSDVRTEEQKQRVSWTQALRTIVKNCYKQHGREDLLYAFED

NRF1 DBD [3] = molecular target: T7, NRF1 DBD (human, UniProt Q16656 177-284); assay: as above; conditions: protein: recombinant; tags: N-terminal His6 removed by TEV (pET28-MHL); chain copies: 2; blunt; self-complementary
T7 sequence: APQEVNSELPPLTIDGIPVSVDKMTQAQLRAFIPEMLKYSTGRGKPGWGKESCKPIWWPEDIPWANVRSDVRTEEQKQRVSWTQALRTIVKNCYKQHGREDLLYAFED

NRF1 N242A = molecular target: T8, NRF1 N242A (human, UniProt Q16656 54-284, N242A); assay: ITC; mean of repeats 1.40, 1.89, 1.89; ITC: 20 mM Hepes pH 7.0, 150 mM NaCl, 25 C; protein 20-30 uM, dsDNA 500-600 uM; conditions: protein: recombinant; tags: N-terminal His6 removed by TEV; chain copies: 2; blunt; self-complementary
T8 sequence: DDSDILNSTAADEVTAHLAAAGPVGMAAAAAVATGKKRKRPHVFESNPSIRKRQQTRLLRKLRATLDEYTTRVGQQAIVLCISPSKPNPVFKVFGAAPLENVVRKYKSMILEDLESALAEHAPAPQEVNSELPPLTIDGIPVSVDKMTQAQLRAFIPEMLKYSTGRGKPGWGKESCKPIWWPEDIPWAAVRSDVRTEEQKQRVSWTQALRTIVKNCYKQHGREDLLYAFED

NRF1 DD-DBD [4] = molecular target: T6, NRF1 DD-DBD; assay: ITC; mean of listed repeats 0.34 and 0.25; ITC: 20 mM Hepes pH 7.0, 150 mM NaCl, 25 C; protein 20-30 uM, dsDNA 500-600 uM; conditions: protein: recombinant; tags: N-terminal His6 removed by TEV (pET28-MHL); chain copies: 2; blunt; self-complementary
NRF1 DBD [5] = molecular target: T7, NRF1 DBD; assay: crystal structure; ITC: 20 mM Hepes pH 7.0, 150 mM NaCl, 25 C; protein 20-30 uM, dsDNA 500-600 uM; conditions: protein: recombinant; tags: N-terminal His6 removed by TEV (pET28-MHL); chain copies: 2; blunt; self-complementary

B1: NRF1 (aa 54–284) (domain or fragment, human, UniProt Q16656 54-284, looked up)
chain: DDSDILNSTAADEVTAHLAAAGPVGMAAAAAVATGKKRKRPHVFESNPSIRKRQQTRLLRKLRATLDEYTTRVGQQAIVLCISPSKPNPVFKVFGAAPLENVVRKYKSMILEDLESALAEHAPAPQEVNSELPPLTIDGIPVSVDKMTQAQLRAFIPEMLKYSTGRGKPGWGKESCKPIWWPEDIPWANVRSDVRTEEQKQRVSWTQALRTIVKNCYKQHGREDLLYAFED
notes: pET28-MHL vector; His6 tag removed with TEV protease; also called Nuclear respiratory factor 1; NRF1 dimer; source: E. coli BL21 (DE3), purified (Ni-NTA, anion exchange, gel filtration); not shown: His6, N-terminal, cleaved
[1]
  stoichiometry N: 2

B2: NRF1 (aa 54–177) (domain or fragment, human, UniProt Q16656 54-177, looked up)
chain: DDSDILNSTAADEVTAHLAAAGPVGMAAAAAVATGKKRKRPHVFESNPSIRKRQQTRLLRKLRATLDEYTTRVGQQAIVLCISPSKPNPVFKVFGAAPLENVVRKYKSMILEDLESALAEHAPA
notes: pET28-MHL vector; His6 tag removed with TEV protease; also called NRF1 DD; dimerization domain; source: E. coli BL21 (DE3), purified (Ni-NTA, anion exchange, gel filtration); not shown: His6, N-terminal, cleaved
[1]
  stoichiometry N: 2

B3: NRF1 (aa 98–177) (domain or fragment, human, UniProt Q16656 98-177, looked up)
chain: ESNPSIRKRQQTRLLRKLRATLDEYTTRVGQQAIVLCISPSKPNPVFKVFGAAPLENVVRKYKSMILEDLESALAEHAPA
notes: pET28-MHL vector; His6 tag removed with TEV protease; source: E. coli BL21 (DE3), purified (Ni-NTA, anion exchange, gel filtration); not shown: His6, N-terminal, cleaved
[1]
  stoichiometry N: 2

B4: 14 bp AT central (WT) (dsDNA)
DNA 1: ATGCGCATGCGCAT
DNA 2: ATGCGCATGCGCAT
NRF1 DD
  Kd: ~1.8 µM
NRF1 R206A
  Kd: ~5.2 µM
NRF1 R244A
  Kd: ~6.66 µM
NRF1 T109D
  Kd: ~1.6 µM
NRF1 T109A
  Kd: ~2.29 µM
NRF1 DD-DBD [2]; self-complementary
  Kd: 0.31 ± 0.05 µM
NRF1 DBD [3]
  Kd: ~1.4 µM
NRF1 N242A
  Kd: ~1.73 µM

B5: CG central (dsDNA)
DNA 1: ATGCGCCGGCGCAT
DNA 2: ATGCGCCGGCGCAT
NRF1 DD-DBD [2]; self-complementary
  Kd: 1.09 ± 0.06 µM

B6: tCGC (dsDNA)
DNA 1: ATTCGCATGCGCAT
DNA 2: ATGCGCATGCGAAT
NRF1 DD-DBD [2]
  Kd: 2.11 ± 0.8 µM

B7: GaGC (dsDNA)
DNA 1: ATGAGCATGCGCAT
DNA 2: ATGCGCATGCTCAT
NRF1 DD-DBD [2]
  Kd: 1.38 ± 0.15 µM

B8: GtGC (dsDNA)
DNA 1: ATGTGCATGCGCAT
DNA 2: ATGCGCATGCACAT
NRF1 DD-DBD [2]
  Kd: 1.81 ± 0.25 µM

B9: GCaC (dsDNA)
DNA 1: ATGCACATGCGCAT
DNA 2: ATGCGCATGTGCAT
NRF1 DD-DBD [2]
  Kd: 0.66 ± 0.04 µM

B10: GCaC/GtGC (dsDNA)
DNA 1: ATGCACATGTGCAT
DNA 2: ATGCACATGTGCAT
NRF1 DD-DBD [2]; self-complementary
  Kd: 4.43 ± 0.55 µM

B11: GCtC (dsDNA)
DNA 1: ATGCTCATGCGCAT
DNA 2: ATGCGCATGAGCAT
NRF1 DD-DBD [2]
  Kd: 2.23 ± 0.17 µM

B12: GCGa (dsDNA)
DNA 1: ATGCGAATGCGCAT
DNA 2: ATGCGCATTCGCAT
NRF1 DD-DBD [2]
  Kd: 3.75 ± 0.69 µM

B13: GCGt (dsDNA)
DNA 1: ATGCGTATGCGCAT
DNA 2: ATGCGCATACGCAT
NRF1 DD-DBD [2]
  Kd: 1.25 ± 0.11 µM

B14: GCGt/aCGC (dsDNA)
DNA 1: ATGCGTATACGCAT
DNA 2: ATGCGTATACGCAT
NRF1 DD-DBD [2]; self-complementary
  Kd: 1.31 ± 0.18 µM

B15: atta/GCGC (dsDNA)
DNA 1: ATATTAATGCGCAT
DNA 2: ATGCGCATTAATAT
NRF1 DD-DBD [2]
  Kd: 3.76 ± 0.23 µM

B16: no spacer (dsDNA)
DNA 1: ATGCGCGCGCAT
DNA 2: ATGCGCGCGCAT
NRF1 DD-DBD [2]; self-complementary
  Kd: 0.57 ± 0.02 µM

B17: 20 bp DNA (dsDNA)
DNA 1: GCGATGCGCATGCGCATCGC
DNA 2: GCGATGCGCATGCGCATCGC
NRF1 DD-DBD [4]
  Kd: ~0.3 µM

B18: A spacer (dsDNA)
DNA 1: ATGCGCAGCGCAT
DNA 2: ATGCGCTGCGCAT
NRF1 DD-DBD [2]
  Kd: 1.62 ± 0.11 µM

B19: ACT spacer (dsDNA)
DNA 1: ATGCGCACTGCGCAT
DNA 2: ATGCGCAGTGCGCAT
NRF1 DD-DBD [2]
  Kd: 1.96 ± 0.27 µM

B20: 16 bp DNA (dsDNA)
DNA 1: GGTGCGCATGCGCACC
DNA 2: GGTGCGCATGCGCACC
NRF1 DBD [5]
  binding result: binds

B21: ACGT spacer (dsDNA)
DNA 1: ATGCGCACGTGCGCAT
DNA 2: ATGCGCACGTGCGCAT
NRF1 DD-DBD [2]; self-complementary
  Kd: 0.91 ± 0.04 µM

B22: ACACT spacer (dsDNA)
DNA 1: ATGCGCACACTGCGCAT
DNA 2: ATGCGCAGTGTGCGCAT
NRF1 DD-DBD [2]
  Kd: 2.32 ± 0.48 µM

B23: ACACTT spacer (dsDNA)
DNA 1: ATGCGCACACTTGCGCAT
DNA 2: ATGCGCAAGTGTGCGCAT
NRF1 DD-DBD [2]
  Kd: 4.36 ± 0.29 µM

B24: ACACTCT spacer (dsDNA)
DNA 1: ATGCGCACACTCTGCGCAT
DNA 2: ATGCGCAGAGTGTGCGCAT
NRF1 DD-DBD [2]
  Kd: 4.31 ± 0.28 µM

B25: aCGC (dsDNA)
DNA 1: ATACGCATGCGCAT
DNA 2: ATGCGCATGCGTAT
NRF1 DD-DBD [2]
  Kd: 1.27 ± 0.27 µM
